Source: the RNAGym collection of RNA variant scans (doi:10.7554/elife.80360)

B1: Twister Ribozyme (parent)
chain: AACACUGCCAAUGCCGGUCCCAAGCCCGGAUAAAAGUGGAGGGGGCGG

Variants of: B1
Experiment: self-cleavage, relative activity (ratio to wild type); higher = more cleavage; co-transcriptional

Point of comparison: AACGCUGCCAAUGCCGGUCCCAAGCCCGGAUAAACGUGGAGGGGGCGG, self-cleavage 0.865. Against it:
- AACCCUGCCAAUGCCGGUUCCAAGCCCGGAUAAAAGUGGAGGGGGCGG — lower, 0.0705
- AACCCUGCCAAUGCCGGUCUCAAGCCCGGAUAAAAGUGGAGGGGGCGG — lower, 0.0732
- AACCCUGCCAAUGCCGGUCCCAAGUCCGGAUAAAAGUGGAGGGGGCGG — lower, 0.058
- AACCCUGCCAAUGCCGGUCCCAAGCGCGGAUAAAAGUGGAGGGGGCGG — lower, 0.103
- AACCCUGCCAAUGCCGGUCCCAAGCUCGGAUAAAAGUGGAGGGGGCGG — lower, 0.0418
- AACCCUGCCAAUGCCGGUCCCAAGCCGGGAUAAAAGUGGAGGGGGCGG — lower, 0.0637
- AACCCUGCCAAUGCCGGUCCCAAGCCCGGAUAAAAGUGGAGGGGGAGG — lower, 0.063
- AACCCUGCCAAUGCCGGUCCCAAGCCCGGAUAAAAGUGGAGGGGGGGG — lower, 0.142
- AACCCUCCCAAUGCCGGUCCCAAGCCCGGAUAAAAGUGGAGGGGGCGG — lower, 0.0903
- AACCCUGCCAAUACCGGUCCCAAGCCCGGAUAAAAGUGGAGGGGGCGG — lower, 0.0606
- AACCCUGCCAAUCCCGGUCCCAAGCCCGGAUAAAAGUGGAGGGGGCGG — lower, 0.0474
- AACCCUGCCAAUUCCGGUCCCAAGCCCGGAUAAAAGUGGAGGGGGCGG — lower, 0.072
- AACCCUGCCAAUGCCCGUCCCAAGCCCGGAUAAAAGUGGAGGGGGCGG — lower, 0.0536
- AACCCUGCCAAUGCCUGUCCCAAGCCCGGAUAAAAGUGGAGGGGGCGG — lower, 0.107
- AACCCUGCCAAUGCCGAUCCCAAGCCCGGAUAAAAGUGGAGGGGGCGG — lower, 0.0548
- AACCCUGCCAAUGCCGUUCCCAAGCCCGGAUAAAAGUGGAGGGGGCGG — lower, 0.0801
- AACCCUGCCAAUGCCGGUCCCAAACCCGGAUAAAAGUGGAGGGGGCGG — lower, 0.0887
- AACCCUGCCAAUGCCGGUCCCAACCCCGGAUAAAAGUGGAGGGGGCGG — lower, 0.078
- AACCCUGCCAAUGCCGGUCCCAAUCCCGGAUAAAAGUGGAGGGGGCGG — lower, 0.0584
- AACCCUGCCAAUGCCGGUCCCAAGCCCAGAUAAAAGUGGAGGGGGCGG — lower, 0.12
- AACCCUGCCAAUGCCGGUCCCAAGCCCGGAUAAAAUUGGAGGGGGCGG — lower, 0.0758
- AACCCUGCCAAUGCCGGUCCCAAGCCCGGAUAAAAGUGAAGGGGGCGG — lower, 0.101
- AACCCUGCCAAUGCCGGUCCCAAGCCCGGAUAAAAGUGGACGGGGCGG — lower, 0.0877
- AACCCUGCCAAUGCCGGUCCCAAGCCCGGAUAAAAGUGGAUGGGGCGG — lower, 0.0895
- AACCCUGCCAAUGCCGGUCCCAAGCCCGGAUAAAAGUGGAGCGGGCGG — lower, 0.125
- AACCCUGCCAAUGCCGGUCCCAAGCCCGGAUAAAAGUGGAGUGGGCGG — lower, 0.0422
- AACCCUGCCAAUGCCGGUCCCAAGCCCGGAUAAAAGUGGAGGAGGCGG — lower, 0.0357
- AACCCUGCCAAUGCCGGUCCCAAGCCCGGAUAAAAGUGGAGGUGGCGG — lower, 0.103
- AACCCUGCCAAUGCCGGUCCCAAGCCCGGAUAAAAGUGGAGGGCGCGG — lower, 0.0939
- AACCCUGCCAAUGCCGGUCCCAAGCCCGGAUAAAAGUGGAGGGUGCGG — lower, 0.134
- AACCCUGCCAAUGCCGGUCCCAAGCCCGGAUAAAAGUGGAGGGGACGG — lower, 0.145
- AACCCUGCCAAUGCCGGUCCCAAGCCCGGAUAAAAGUGGAGGGGCCGG — lower, 0.16
- AACCCUGCCAAUGCCGGUCCCAAGCCCGGAUAAAAGUGGAGGGGUCGG — lower, 0.0976
- AACCCUGCCAAUGCCGGUCCCAAGCCCGGAUAAAAGUGGAGGGGGCAG — lower, 0.178
- AACCCUGCCAAUGCCGGUCCCAAGCCCGGAUAAAAGUGGAGGGGGCCG — lower, 0.0906
- AACCCUGCCAAUGCCGGUCCCAAGCCCGGAUAAAAGUGGAGGGGGCGU — lower, 0.232
- AACCCAGCCAAUGCCGGUCCCAAGCCCGGAUAAAAGUGGAGGGGGCGG — lower, 0.0472
- AACCCUGCCAAAGCCGGUCCCAAGCCCGGAUAAAAGUGGAGGGGGCGG — lower, 0.193
- AACCCUGCCAAGGCCGGUCCCAAGCCCGGAUAAAAGUGGAGGGGGCGG — lower, 0.332
- AACCCUGCCAAUGCCGGUCCCAAGCCCGGACAAAAGUGGAGGGGGCGG — lower, 0.249
- AACCCUGCCAAUGCCGGUCCCAAGCCCGGAUAAAAGAGGAGGGGGCGG — lower, 0.766
- AACCCUGCCAAUGCCGGUCCCAAGCCCGGAUAAAAGCGGAGGGGGCGG — lower, 0.122
- AACCCUGCCAAUGCCGGUCCCAAGCCCGGAUAAAAGGGGAGGGGGCGG — lower, 0.623
- AACGCUGCCAAUGCCGGUCCCAAGCCCGGAUAAAAGUGGAGGGGGCGG — higher, 1
- AACGCUGCCCAUGCCGGUCCCAAGCCCGGAUAAAAGUGGAGGGGGCGG — lower, 0.762
- AACGCUGCCGAUGCCGGUCCCAAGCCCGGAUAAAAGUGGAGGGGGCGG — higher, 0.892
- AACGCUGCCAGUGCCGGUCCCAAGCCCGGAUAAAAGUGGAGGGGGCGG — higher, 0.96
- AACGCUGCCAAUGCCGGUCCCCAGCCCGGAUAAAAGUGGAGGGGGCGG — higher, 1.01
- AACGCUGCCAAUGCCGGUCCCGAGCCCGGAUAAAAGUGGAGGGGGCGG — lower, 0.0987
- AACGCUGCCAAUGCCGGUCCCUAGCCCGGAUAAAAGUGGAGGGGGCGG — lower, 0.69
- AACGCUGCCAAUGCCGGUCCCAGGCCCGGAUAAAAGUGGAGGGGGCGG — lower, 0.384
- AACGCUGCCAAUGCCGGUCCCAAGCCCGGGUAAAAGUGGAGGGGGCGG — lower, 0.81
- AACGCUGCCAAUGCCGGUCCCAAGCCCGGAUCAAAGUGGAGGGGGCGG — lower, 0.719
- AACGCUGCCAAUGCCGGUCCCAAGCCCGGAUUAAAGUGGAGGGGGCGG — higher, 0.945
- AACGCUGCCAAUGCCGGUCCCAAGCCCGGAUACAAGUGGAGGGGGCGG — lower, 0.721
- AACGCUGCCAAUGCCGGUCCCAAGCCCGGAUAGAAGUGGAGGGGGCGG — higher, 0.941
- AACGCUGCCAAUGCCGGUCCCAAGCCCGGAUAAGAGUGGAGGGGGCGG — lower, 0.61
- AACGCUGCCAAUGCCGGUCCCAAGCCCGGAUAAAGGUGGAGGGGGCGG — lower, 0.525
- AACGCUGCCAAUGCCGGUCCCAAGCCCGGAUAAAUGUGGAGGGGGCGG — lower, 0.844
- AACGCUGCCAAUGCCGGUCCCAAGCCCGGAUAAAAGUGGGGGGGGCGG — lower, 0.17
- AACGCUGCCAAUGCCGGUCCCAAGCCCGGAUAAAAGUGGUGGGGGCGG — lower, 0.163
- AACGAUGCCAAUGCCGGUCCCAAGCCCGGAUAAAAGUGGAGGGGGCGG — higher, 0.892
- AACGGUGCCAAUGCCGGUCCCAAGCCCGGAUAAAAGUGGAGGGGGCGG — lower, 0.274
- AACGUUGCCAAUGCCGGUCCCAAGCCCGGAUAAAAGUGGAGGGGGCGG — lower, 0.855
- AACGCUGGCAAUGCCGGUCCCAAGCCCGGAUAAAAGUGGAGGGGGCGG — lower, 0.289
- AACGCUGCGAAUGCCGGUCCCAAGCCCGGAUAAAAGUGGAGGGGGCGG — lower, 0.601
- AACGCUGCUAAUGCCGGUCCCAAGCCCGGAUAAAAGUGGAGGGGGCGG — lower, 0.549
- AACGCUGCCAAUGACGGUCCCAAGCCCGGAUAAAAGUGGAGGGGGCGG — lower, 0.76
- AACGCUGCCAAUGGCGGUCCCAAGCCCGGAUAAAAGUGGAGGGGGCGG — lower, 0.276
- AACGCUGCCAAUGUCGGUCCCAAGCCCGGAUAAAAGUGGAGGGGGCGG — higher, 0.957
- AACGCUGCCAAUGCAGGUCCCAAGCCCGGAUAAAAGUGGAGGGGGCGG — lower, 0.631
- AACGCUGCCAAUGCCGGUACCAAGCCCGGAUAAAAGUGGAGGGGGCGG — lower, 0.0929
- AACGCUGCCAAUGCCGGUGCCAAGCCCGGAUAAAAGUGGAGGGGGCGG — lower, 0.166
- AACGCUGCCAAUGCCGGUUCCAAGCCCGGAUAAAAGUGGAGGGGGCGG — higher, 0.887
- AACGCUGCCAAUGCCGGUCACAAGCCCGGAUAAAAGUGGAGGGGGCGG — lower, 0.14
- AACGCUGCCAAUGCCGGUCUCAAGCCCGGAUAAAAGUGGAGGGGGCGG — higher, 1.06
- AACGCUGCCAAUGCCGGUCCAAAGCCCGGAUAAAAGUGGAGGGGGCGG — lower, 0.0832
- AACGCUGCCAAUGCCGGUCCGAAGCCCGGAUAAAAGUGGAGGGGGCGG — lower, 0.0683
- AACGCUGCCAAUGCCGGUCCCAAGACCGGAUAAAAGUGGAGGGGGCGG — lower, 0.054
- AACGCUGCCAAUGCCGGUCCCAAGGCCGGAUAAAAGUGGAGGGGGCGG — lower, 0.189
- AACGCUGCCAAUGCCGGUCCCAAGCCAGGAUAAAAGUGGAGGGGGCGG — lower, 0.279
- AACGCUGCCAAUGCCGGUCCCAAGCCUGGAUAAAAGUGGAGGGGGCGG — lower, 0.74
- AACGCUGCCAAUGCCGGUCCCAAGCCCGGAUAAAAGUGGAGGGGGAGG — lower, 0.785
- AACGCUUCCAAUGCCGGUCCCAAGCCCGGAUAAAAGUGGAGGGGGCGG — lower, 0.052
- AACGCUGCCAAUACCGGUCCCAAGCCCGGAUAAAAGUGGAGGGGGCGG — lower, 0.563
- AACGCUGCCAAUGCCAGUCCCAAGCCCGGAUAAAAGUGGAGGGGGCGG — higher, 0.918
- AACGCUGCCAAUGCCCGUCCCAAGCCCGGAUAAAAGUGGAGGGGGCGG — lower, 0.243
- AACGCUGCCAAUGCCUGUCCCAAGCCCGGAUAAAAGUGGAGGGGGCGG — lower, 0.839
- AACGCUGCCAAUGCCGAUCCCAAGCCCGGAUAAAAGUGGAGGGGGCGG — lower, 0.473
- AACGCUGCCAAUGCCGUUCCCAAGCCCGGAUAAAAGUGGAGGGGGCGG — lower, 0.0875
- AACGCUGCCAAUGCCGGUCCCAAUCCCGGAUAAAAGUGGAGGGGGCGG — lower, 0.12
- AACGCUGCCAAUGCCGGUCCCAAGCCCAGAUAAAAGUGGAGGGGGCGG — lower, 0.58
- AACGCUGCCAAUGCCGGUCCCAAGCCCUGAUAAAAGUGGAGGGGGCGG — lower, 0.644
- AACGCUGCCAAUGCCGGUCCCAAGCCCGAAUAAAAGUGGAGGGGGCGG — lower, 0.819
- AACGCUGCCAAUGCCGGUCCCAAGCCCGGAUAAAACUGGAGGGGGCGG — lower, 0.182
- AACGCUGCCAAUGCCGGUCCCAAGCCCGGAUAAAAUUGGAGGGGGCGG — lower, 0.164
- AACGCUGCCAAUGCCGGUCCCAAGCCCGGAUAAAAGUAGAGGGGGCGG — higher, 0.867
- AACGCUGCCAAUGCCGGUCCCAAGCCCGGAUAAAAGUGAAGGGGGCGG — lower, 0.322
- AACGCUGCCAAUGCCGGUCCCAAGCCCGGAUAAAAGUGGAUGGGGCGG — lower, 0.405
- AACGCUGCCAAUGCCGGUCCCAAGCCCGGAUAAAAGUGGAGCGGGCGG — lower, 0.186
- AACGCUGCCAAUGCCGGUCCCAAGCCCGGAUAAAAGUGGAGGAGGCGG — lower, 0.165
- AACGCUGCCAAUGCCGGUCCCAAGCCCGGAUAAAAGUGGAGGCGGCGG — lower, 0.168
- AACGCUGCCAAUGCCGGUCCCAAGCCCGGAUAAAAGUGGAGGUGGCGG — lower, 0.233
- AACGCUGCCAAUGCCGGUCCCAAGCCCGGAUAAAAGUGGAGGGCGCGG — lower, 0.645
- AACGCUGCCAAUGCCGGUCCCAAGCCCGGAUAAAAGUGGAGGGUGCGG — higher, 0.968
- AACGCUGCCAAUGCCGGUCCCAAGCCCGGAUAAAAGUGGAGGGGACGG — higher, 0.955
- AACGCUGCCAAUGCCGGUCCCAAGCCCGGAUAAAAGUGGAGGGGGCAG — higher, 0.91
